According to a protein production outcome set (Wang et al. 2014):

Test: label from the status in PepcDB records

MGGKWSTPSFDEAARLVLGRGFHHVSLCAAGYFSDGNETIHRESVLSAIDPSVRVETIPCLNDSPHLIACLAGRVVAASRQILAFSGDLKG
protein production: failed

MGGLGYGCHPVPAVLDDEGNQLPDPGRRRTVIHDGSAADRQPGVQHRALADGRRQLARHRLLPGRARRVIAGQGCQRARPRSGEGRRRGVHGDLRHRIRHGPASLPDRGGRGRRAEALLVAEEHAMSRASRHRILAAMLSACLLSLLGGCTPLTVLAVLGGCKDGGSNGSSGGVTGSVTTGEVRDGMTIAQTKAWFNGSDGPDNVCQAYPDGQCTWWACMRGHKIGLDVGSYWGNGGDWAASATAAGWKTTRTDPVAGSIVSYPPGVADADTLYGHVAVVEAVDRTAGTVTISEMNGRGGLGIVNHRTHRINVGAVYILPNGSVSTNGSAGTDSTSSGSESSDSSSSSDSSSSSDPVEAAWTCSSSDSGSTDVVVDYDGDGTHATPEQARAIARKMIASYKDWGDGDYDALVWLWNKESGWQWNATNPSSGAYGIPQALPASKLASAGDDWKDNAATQIKWGLNYIAGRYGSPSAAKTFWLAHNWY
protein production: failed

MGGLTLFAAQGCKAPKQVAEQAEHPNIIYVFPDQYRNQAMGFWNQEGFRDKVNFRGDPVHTPNIDTFARESMVLTSAQSNCPLSSPHRGMLLTGMYPNRSGVPLNCNSTRPISSLRDDAECIGDVFSKAGYDCAYFGKLHADFPTPNDPENPGQYVETQRPVWDAYTPKEQRHGFNYWYSYGTFDEHKNPHYWDTDGKRHDPKEWSPLHESGKVVSYLKNEGNVRDTKKPFFIMVGMNPPHSPYRSLNDCEEQDFNLYKDQPLDSLLIRPNVDLNMKKAESVRYYFASVTGVDRAFGQILEALKQLGLDKNTVVIFASDHGETMCSQRTDDPKNSPYSESMNIPFLVRFPGKIQPRVDDLLLSAPDIMPTVLGLCGLGDSIPSEVQGRNFAPLFFDEKAEIVRPAGALYIQNLDGEKDKDGLVQSYFPSSRGIKTARYTLALYIDRKTKQLKKSLLFDDVNDPYQLNNLPLDENKEVVEQLYREMGTMLKEIDDPWYTEKILSDRIPYLEHHHHHH
protein production: failed

MGHEAKHPIIIGITGNIGSGKSTVAALLRSWGYPVLDLDALAARARENKEEELKRLFPEAVVGGRLDRRALARLVFSDPERLKALEAVVHPEVRRLLMEELSRLEAPLVFLEIPLLFEKGWEGRLHGTLLVAAPLEERVRRVMARSGLSREEVLARERAQMPEEEKRKRATWVLENTGSLEDLERALKAVLAELTGGAKEGRG
protein production: not failed

MGHHHHHHENLYFQSHLKIMDVEGGALVDPDHIEEVETSMVIVVDDDDGDVAMVVEEDKHPMRDDPCIEDIMDDEHAPLVAELQSALNNPDDKQASEDPLLED
protein production: failed

MGHHHHHHENLYFQSHMTDFVELMNSMSSTFNSDCATSTAEGGTLLNLNLAEDKTLKWRNLANNQFASKEKKHKDKEEEERKEARNQEEIEDIKALLADVVDAAAVKLEEEEAQNAEKVEPHTKCEIEEEGRKEMEYDQDVAKQDSEMEKKQNGKATSITVKMES
protein production: not failed

MGHHHHHHSHADLPQWVSERLLQQINQLTNYEPVIGIMGKTGVGKSSLCNALFAGDISPVSDVAACTREPLRFRLQVGDRYITLMDLPGVGESGARDTEYAALYREQLPRLDLVLWLIKADDRALTVDEHFYHQVIGEVYRHKVLFVISQSDKAEPTSGGGQLSTAQKQNISRKICLLHELFQPVHPVCAVSVRLQWGLKVMAERMIKCLP
protein production: not failed

MGHHHHHHSHAHTTTSMEIFGSPEQVWQLIGGFNSLPDWLPYIPSSKLTEGGRVRHLANPDGDTIIERLEVFNDKERYYTYSIMNAPFPVTNYLSTIQVKEGTESNTSLVEWSGTFTPVEVSDEEAINLFHGIYSDGLKALQQAF
protein production: not failed

MGHHHHHHSHGQQSVSNKLLAWSGVLEWQEKPKPASVDANTKLTRSLPCQVYVNHGENLKTEQWPQKLIMQLIPQQLLTTLGPLFRNSRMVQFHFTNKDLESLKGLYRIMGNGFAGCVHFPHTAPCEVRVLMLLYSSKKKIFMGLIPYDQSGFVNGIRQVITN
protein production: not failed

MGHHHHHHSHMAAAIASSLIRQKRQAREREKSNACKCVSSPSKGKTSCDKNKLNVFSRVKLFGSKKRRRRRPEPQLKGIVTKLYSRQGYHLQLQADGTIDGTKDEDSTYTLFNLIPVGLRVVAIQGVQTKLYLAMNSEGYLYTSELFTPECKFKESVFENYYVTYSSMIYRQQQSGRGWYLGLNKEGEIMKGNHVKKNKPAAHFLPKPLKVAMYKEPSLHDLTEFSRSGSGTPTKSRSVSGVLNGGKSMSHNEST
protein production: not failed

MGHHHHHHSHMADNMTTTQIEVGPGATNATINFEAGILECYERFSWQRALDYPGQDRLHRLKRKLESRIKTHNKSEPENKRMSLEERKAIGVKMMKVLLFMDPSAGIEGFEPY
protein production: not failed

MGHHHHHHSHMAGTVVLDDVELREAQRDYLDFLDDEEDQGIYQSKVRELISDNQYRLIVNVNDLRRKNEKRANRLLNNAFEELVAFQRALKDFVASIDATYAKQYEEFYVGLEGSFGSKHVSPRTLTSCFLSCVVCVEGIVTKCSLVRPKVVRSVHYCPATKKTIERRYSDLTTLVAFPSSSVYPTKDEENNPLETEYGLSVYKDHQTITIQEMPEKAPAGQLPRSVDVILDDDLVDKAKPGDRVQVVGTYRCLPGKKGGYTSGTFRTVLIACNVKQMS
protein production: not failed

MGHHHHHHSHMAKTYDYLFKLLLIGDSGVGKTCVLFRFSEDAFNSTFISTIGIDFKIRTIELDGKRIKLQIWDTAGQERFRTITTAYYRGAMGIMLVYDITNEKSFDNIRNWIRNIEEHASADVEKMILGNKCDVNDKRQVSKERGEKLALDYGIKFMETSAKANINVENAFFTLARDIKAKMDKKLEGNSPQGSNQGVKITPDQQKRSSFFRCVLL
protein production: not failed

MGHHHHHHSHMALKDYALEKEKVKKFLQEFYQDDELGKKQFKYGNQLVRLAHREQVALYVDLDDVAEDDPELVDSICENARRYAKLFADAVQELLPQYKEREVVNKDVLDVYIEHRLMMEQRSRDPGMV
protein production: not failed

MGHHHHHHSHMATGQDRVVALVDMDCFFVQVEQRQNPHLRNKPCAVVQYKSWKGGGIIAVSYEARAFGVTRSMWADDAKKLCPDLLLAQVRESRGKANLTKYREASVEVMEIMSRFAVIERASIDEAYVDLTSAVQERLQKLQGQPISADLLPSTYIEGLPQGPTTAEETVQKEGMRKQGLFQWLDSLQIDNLTSPDLQLTVGAVIVEEMRAAIERETGFQCSAGISHNKVLAKLACGLNKPNRQTLVSHGSVPQLFSQMPIRKIRSLGGKLGASVIEILGIEYMGELTQFTESQLQSHFGEKNGSWLYAMCRGIEHDPVKPRQLP
protein production: not failed

MGHHHHHHSHMNSAEQTVTWLITLGVLESPKKTISDPEGFLQASLKDGVVLCRLLERLLPGTIEKVYPEPRSESECLSNIREFLRGCGASLRLELLFPPSQPPQHLVTTILLSASTFDANDLYQGQNFNKVLSSLVTLNKVTADIGLGSDSVCARPSSHRIKSFDSLGSQSLHTR
protein production: failed

MGHHHHHHSHMNSDSECPLSHDGYCLHDGVCMYIEALDKYACNCVVGYIGERCQYRDLKWWELR
protein production: failed

MGHHHHHHSHMQPAKEVTKASDGSLLGDLGHTPLSKKEGIKWQRPRLSRQALMRCCLVKWILSSTAPQGSDSSDSELELSTVRHQPEGLDQLQAQTKFTKKELQSLYRGFKNECPTGLVDEDTFKLIYAQFFPQGDATTYAHFLFNAFDADGNGAIHFEDFVVGLSILLRGTVHEKLKWAFNLYDINKDGYITKEEMLAIMKSIYDMMGRHTYPILREDAPAEHVERFFEKMDRNQDGVVTIEEFLEACQKDENIMSSMQLFENVI
protein production: failed

MGHHHHHHSHMSRVPPTVTNAVSWRSEGIKYKKNEVFIDVIESVNLLVNANGSVLLSEIVGTIKLKVFLSGMPELRLGLNDRVLFELTGRSKNKSVELEDVKFHQCVRLSRFDNDRTISFIPPDGDFELMSYRLSTQVKPLIWIESVIEKFSHSRVEIMVKAKGQFKKQSVANGVEISVPVPSDADSPRFKTSVGSAKYVPERNVVIWSIKSFPGGKEYLMRAHFGLPSVEKEEVEGRPPIGVKFEIPYFTVSGIQVRYMKIIEKSGYQALPWVRYITQSGDYQLRTS
protein production: failed

MGHHHHHHSHMVANPPASKESIDALPEILVTEDHGAVGQEMCCPICCSEYVKGEVATELPCHHYFHKPCVSIWLQKSGTCPVCRCMFPPPL
protein production: failed

MGHHHHHHSHRGAGRVSRWPPPHWLEAWRVSPRPLSPLSPATFGRGFIAVAVIPGLWARGRGCSSDRLPRPAGPARRQFQAASLLTRGWGRAWPWKQILKELDECYERFSRETDGAQK
protein production: failed

MGHHHHHHSHRNLDSRTFITIGDRNFEVEADDLVTISELGRGAYGVVEKVRHAQSGTIMAVKRIRATVNSQEQKRLLMDLDINMRTVDCFYTVTFYGALFREGDVWICMELMDTSLDKFYRKVLDKNMTIPEDILGEIAVSIVRALEHLHSKLSVIHRDVKPSNVLINKEGHVKMCDFGISGYLVDSVAKTMDAGCKPYMAPERINPELNQKGYNVKSDVWSLGITMIEMAILRFPYESWGTPFQQLKQVVEEPSPQLPADRFSPEFVDFTAQCLRKNPAERMSYLELMEHPFFTLHKTKKTDIAAFVKEILGEDS
protein production: failed

MGHHHHHHSHVRSPQNQYPAELMRRFELYFQGPSSNKPRVIREVRADSVGKLVTVRGIVTRVSEVKPKMVVATYTCDQCGAETYQPIQSPTFMPLIMCPSQECQTNRSGGRLYLQTRGSRFIKFQEMKMQEHSDQVPVGNIPRSITVLVEGENTRIAQPGDHVSVTGIFLPILRTGFRQVVQGLLSETYLEAHRIVK
protein production: failed

MGHVSNSPFSVDVLVVGGGPAGSAAAIHAAKAGYSVLLIDAQPFPRDKTCGDGLTPRAVHQLEALGVDVTSRYRSFGLKLHGFGGSVTVPWPESHFGQVSSAMPRMKFDAMLWEMAAQHATTWTATASEVEIDSAIRSVTMSDGRVVKPRSVIVADGVRSTFGKLLGRTWHRGEVYGIAARSYCTTPRSTEPWMHSHLELRDDSTTLPGYGWIFPIGDGTANVGCGALSTDKRPAKINTKKLLRHYASQQTDWEFGTPQRVASALLPMGGAVSTIAGPNWMLIGDAAACVNPLNGEGIDYGLETAALAVAHLDNPLEWPHILRETYGEAFLLARTAARLLTYPQFLPLTGPIALRTPLMASAARLMGNLVTEEDKDIVARAWRAAGWGVTKIRGGSPLWDLEHHHHHH
protein production: failed

MGICVSFRREDSNSSPTVKIVTVNGDLREYNVPVIASQVLEAESAAAYSSSSSSRPSSYFICDSDSLYYDDFIPAIKSEEPLQADQIYFVLPISKRQSRLTASDMAALAVKASVAIQNSVKKESRRRKKVRISPVMMLTGSNDSVNGNGSETTVKKGRPFVSKTAPVKASSGINRSGSVRNLRRYTSKRAKLAVRSFRLKLSTIYEGSVV
protein production: failed

MGICVVIPAFNAALTIEAVVRETLEQGLPLVVVDDGSEDGTADCVRGLPVNLVSHGRNRGKGAALKTGFAWALEYGFSGVITLDSDGQHDPTAITLLAETAKNDGWDILVASRFAQFNQMAGLRRHWNRFGAWCMKKRTGFQIDDSQSGFRYYSARLLRMVSLGKDGYDLEMEILMKAWQAGCTIGSVPVPARVADGRATSHFRPVRDTWNICMTFLRYMLEHHHHHH
protein production: failed

MGIEMSLKDIINSNRPSESRQLACALTFCGGFIDAYTYIQRGHTLSAGQTGNVIFFSSALADHNIPGMINRASTFIAFSLGLLLVGLFHKYVKSHYWRVFCLFPILVICIVVGFLPKSVPNYYIVPAIAFGLAVQNASFSKIEGMGYNNVFTTGNLKKSVVAWSAFFFGEDKSKYTAAVNYMMLVISFGLGAIVSALLQKIWVLKTIWIAVIFLAIINCIYIIAIRKHKKLDLSGKNDA
protein production: failed
